From patent US5434073 come the findings set out here.

Assay [1] concerns the target human thrombin (Sigma) (human) (UniProt P00734).
The target of assay [2] is plasminogen (Sigma P-7397).

hirudin-IEGR-hirudin fusion protein had a specific activity in anti-thrombin units (inhibition of thrombin catalysed hydrolysis of CHROMOZYM TH) in assay [1] of 588 U/mg.

With recombinant hirudin sample, the specific activity in anti-thrombin units (inhibition of thrombin catalysed hydrolysis of CHROMOZYM TH) in assay [1] came out at 6600 U/mg.

Regarding “thrombin cleavable streptokinase-streptokinase fusion protein”, in assay [2], the streptokinase activity by the S2251 chromogenic assay was determined as 18400 u/ml.
